Assay results from US20220273713A1, “METHOD OF INHIBITING OR ACTIVATING GAMMA DELTA T CELLS” (The University of Melbourne, priority 2019, published 2022).
“And” between values parts separate entries of the source, which are not always exact repeats. Equal values may be shown once.

B1: Hu34C1: antagonist anti-BTN2A1 mAb; VH SEQ ID NO: 100, VL SEQ ID NO: 101; human IgG4 Fab, murine IgG2a Fc (antibody, V domains shown)
VH: EVQLLESGGGLVQPGGSLRLSCAASGFTFSHYPMIWVRQAPGKGLEWVSSISSSGGSTHYADSVKGRFTISRDNSKNTLYLQMNSLRAEDTAMYYCAALVSDTDFWGQGTLVTVSS
VL: DIQMTQSPATLSVSPGESTTLSCRASQSVTSNLAWYQQKPGQAPSLLIYGASTRATGIPARFSGSGSGTEFTLTISSLQSEDSAVYYCQQYNNWPRTFGQGTKVEIK
modifications: human IgG4 Fab, murine IgG2a Fc constant regions; amino acid sequence of Hu34C VH; amino acid sequence of Hu34C VL

Assays:
[1] = tested on: Vγ9Vδ2 cells; assay: Luminex (Vγ9Vδ2): cytokine/chemokine secretion by pre-expanded Vγ9Vδ2 cells; assay type: cell-based, human; conditions: for GMCSF / ICAM-1 / IFNγ / IL-4 / IL-8 / IL-13 / IL-17A / MIP-1a / MIP-1b / TNFα / sE-selectin / sP-Selectin: 16 hrs, antibodies 10 μg/ml, Zoledronic acid 4 μM, HMBPP 0.5 ng/ml, duplicates, 0 set to 0.1; for cytokine/chemokine secretion, in words: vs isotype (BM4);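 as to all read-outs here: Vγ9Vδ2 cells purified from PBMC, activated 48 h with CD3 and CD28 plus IL-2, expanded 14 days in IL-2, then thawed and rested overnight in IL-2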
[2] = tested on: Vγ9^+ T cells; conditions: cited from earlier work
[3] = target: BTN2A1 B30.2 domain (Homo sapiens, UniProt Q7KYR7); conditions: ITC, 25° C., B30.2 domain 100 μM, pAg 2 mM
[4] = tested on: Vδ2^+ γδ T cells among PBMCs; assay: γδ T cell functional assay: PBMC ± zoledronate ± anti-BTN2A1 mAb; assay type: cell-based, human; conditions: PBMCs 24 h, 4 μM zoledronate, 10 μg/ml anti-BTN2A1 mAb, compared to isotype control mAb
Experimental: Fresh PBMC (2×10^6) were cultured in 24 well plates ±zoledronate (4 μM, Sigma) and purified mAb against BTN2A1, BTN3A1, or isotype control IgG1κ (MOPC-21, BioLegend) (10 μg/ml) After 24 h CD3ε^+ γδTCR^+ Vδ2^+/− γδ T cell activation was assessed by flow cytometry and cytokine production was determined by cytometric bead array according to manufacturer instructions (BD). For the assays in FIG. 14, PBMC were cultured in 24 well plates and blocked for 30 min with mAb against BTN2A1, BTN3A1, or isotype control (10 μg/ml). […] Cells were surface-stained and then fixed and permeabilized using Foxp3/Transcription Factor Staining Buffer Set (Invitrogen) according to the manufacturer's protocol followed by staining with anti-IFN-γ (Biolegend). For co-culture assays, purified and in vitro-expanded γδ T cells (5×10^5) were incubated in 96 well plates with APCs (3×10^5) for 24 h ±zoledronate (4 μM), and γδ T cell activation was determined by flow cytometry as above.

[5] = tested on: in vitro pre-expanded CD3+Vδ2+ γδ T cells; assay: HMBPP or anti-CD3/anti-CD28 activation of purified in vitro-expanded Vδ2+ T cells ± neutralizing anti-BTN2A1 mAb; assay type: cell-based, human; conditions: HMBPP 0.5 ng/ml, 10 μg/ml neutralizing anti-BTN2A1 mAb, no APCs
Experimental: CD25 expression was determined by flow cytometry, and IFN-γ concentration was determined by cytometric bead array (BD Bioscience) as per manufacturer instructions.

[6] = γδT cells from patient 1 (melanoma patient)

Chain of BTN2A1 B30.2 domain (Q7KYR7 310-506 limits assumed): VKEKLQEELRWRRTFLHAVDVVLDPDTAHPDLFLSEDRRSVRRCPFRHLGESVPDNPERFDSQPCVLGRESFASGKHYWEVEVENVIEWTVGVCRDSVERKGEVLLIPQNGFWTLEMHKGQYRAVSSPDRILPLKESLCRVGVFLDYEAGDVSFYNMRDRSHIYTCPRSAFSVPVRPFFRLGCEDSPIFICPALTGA

Molecule | ICAM-1 ([1]; γδT cells from a healthy donor) | IFNγ ([1]; γδT cells from a healthy donor) | IL-4 ([1]; γδT cells from a healthy donor) | IL-8 ([1]; γδT cells from a healthy donor) [pg/mL] | IL-13 ([1]; γδT cells from a healthy donor) | IL-17A ([1]; γδT cells from a healthy donor) | MIP-1a ([1]; γδT cells from a healthy donor) | MIP-1b ([1]; γδT cells from a healthy donor) | TNFα ([1]; γδT cells from a healthy donor) | sE-selectin ([1]; γδT cells from a healthy donor) | sP-Selectin ([1]; γδT cells from a healthy donor) | GMCSF [1, 6] | ICAM-1 [1, 6] | IFNγ [1, 6] | IL-4 [1, 6] | IL-13 [1, 6] | IL-17A [1, 6] | MIP-1a [1, 6] | MIP-1b [1, 6] | TNFα [1, 6] | other results
CC(=CCOP(=O)(O)OP(=O)(O)O)CO [HMBPP, 4-hydroxy-3-methyl-but-2-enyl pyrophosphate, reference compound] | 575.02 pg/mL and 570.14 pg/mL | 751.87 pg/mL and 798.38 pg/mL | 137.56 pg/mL and 117.91 pg/mL | 0.1 | 84.37 pg/mL and 87.99 pg/mL | 8.39 pg/mL and 9.97 pg/mL | 395.47 pg/mL and 392.74 pg/mL | 19239.36 pg/mL and 20123.08 pg/mL | 2186.67 pg/mL and 2148.53 pg/mL | 387.87 pg/mL and 373.47 pg/mL | 3183.34 pg/mL and 3082.95 pg/mL | 2172.54 pg/mL and 2625.54 pg/mL | 729.5 pg/mL and 885.22 pg/mL | 723.16 pg/mL and 791.56 pg/mL | 875.51 pg/mL and 1027.45 pg/mL | 478.3 pg/mL and 602.86 pg/mL | 9.23 pg/mL and 10.85 pg/mL | 321.54 pg/mL and 383.73 pg/mL | 9453.77 pg/mL and 12721.52 pg/mL | 2973.1 pg/mL and 3657.48 pg/mL | GMCSF ([1]; γδT cells from a healthy donor): 2375.52 pg/mL and 2349.07 pg/mL; sE-selectin [1, 6]: 373.32 pg/mL and 372.16 pg/mL; sP-Selectin [1, 6]: 2542.23 pg/mL and 2775.99 pg/mL; sensitivity for HMBPP relative to IPP [2]: ~1000 fold; binding of pAg to BTN2A1 B30.2 domain [3]: no clear interaction
B1 | 0.1 pg/mL | 0.1 pg/mL | 0.1 pg/mL | 0.1 | 0.1 pg/mL | 0.1 pg/mL | 9.16 pg/mL and 7.83 pg/mL | 50.62 pg/mL and 43.18 pg/mL | 0.1 pg/mL | 0.1 pg/mL | 0.1 pg/mL | 8.09 pg/mL and 9.22 pg/mL | 0.1 pg/mL | 0.1 pg/mL | 0.1 pg/mL | 16.14 pg/mL and 14.86 pg/mL | 0.1 pg/mL | 50.75 pg/mL and 51.38 pg/mL | 239.49 pg/mL and 252.05 pg/mL | 0.1 pg/mL | indicators of TCR-dependent activation (CD25 induction, CD3 downregulation, IFN-γ and TNF production) [4]: significantly inhibited; cytokine/chemokine secretion, in words ([1]; cancer patient derived Vγ9Vδ2 cells): reduction in levels of GMCSF, ICAM1 (to undetectable levels), IFNγ, IL-13, MIP1α and MIP1β as well as sE-selectin; cytokine/chemokine secretion, in words ([1]; healthy donor derived Vγ9Vδ2 cells): downregulation of MIP1α and b as well as GMCSF; IL-8 [1, 6]: 0.1 pg/mL; sP-Selectin [1, 6]: 0.1 pg/mL; HMBPP-induced activation (CD25 upregulation, IFN-γ production) [5]: failed to upregulate CD25 and produce IFN-γ
